The record followed here is patent publication US20180327462A1.

For the test, the target named is SH2-GFP-tail substrate with the SH2 domain of human Abl1 (human; yeast) (UniProt P00519). The test can be described thus: cell-based or functional assay.
Sequence of UniProt P00519 (P00519 other isoform, or with tags, fused parts or gaps, form in doubt): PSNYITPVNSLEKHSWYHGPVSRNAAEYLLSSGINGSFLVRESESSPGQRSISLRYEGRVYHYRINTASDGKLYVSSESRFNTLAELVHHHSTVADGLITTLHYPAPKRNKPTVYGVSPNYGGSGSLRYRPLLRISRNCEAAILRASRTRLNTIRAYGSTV

As to “FLAG-hUbL-mB^HA4 (binding degradon; human Rad23b UbL domain fused N-terminally to the HA4 monobody) (from UniProt P54727 1-83) (designed binder)”, the substrate amount in cell lysate (SDS-PAGE, Typhoon fluorescence, ImageJ) was 4 fold.
“UbL-mB^HA4 degradon (yeast Rad23 UbL domain fused N-terminally to the HA4 monobody) (from UniProt P32628 1-77) (designed binder)”: the substrate turnovers per degradon molecule (10 nM degradon, varied substrate, GFP fluorescence) was found to be 5 times.
